# Measurements taken from the DeepSol protein solubility set.
# Experiment: soluble on expression in E. coli; label from the status in PepcDB or PDB records
row,Sequence,soluble on expression in E. coli
1,GPGSMDIDSPYKILGIPQSASVADIRAAFRRLALTTHPDKQGSNTSGGEAQMMLYSSHPFYVIKEASDILLDPVRRAEYDEGQQRMYARSIGVVSDVHDISDFRLVEERKALCSEDRVCGDVTIQVYEMECRCGGAFEIFLVKGEEGNMDKLCGCDSCSLIVSVRRQTQQ,soluble
2,GPGSMEDPVRCECQKHAQDDGYSQGELLPLTAFRQVEKRYKLYRYDRRTSRRLQVPETDFSDVVDFRNLEANTAANLACISTRECHEDDRLVKCCTFAGVPGMEVFPNFLTDAEQQEFCRAALLEYGDSRRHPNHLSTHASEPRETTRYEPPMRWATVGFSYQWSSKSYCKEKYSHFPRRLRKCVERIARLCNVSQPYEPQTSIVNYFPVGAMMMAHQDVSEEVLQQPLISISLGCSCVFLMGTESRDDTPCAFWLRSGDVIVVSGASRTAYHGVPRIMDDCPQYLCPQNETEEEEGEFYWREQMRHLRVNINVRQVYPDRCEFLNE,not soluble
3,GPGSMEGSGSYRLKRGRDELSTPPASGNFPASDQRGTQNLLRCPWCPNGHLMRPAAKSPTNNSKEEGTHLCTNRSSCPCGAVIDQDRTMSFSCIDGSDLIRNFYNALDDHLETCQIVSQTPSQRDWAPWSIVAERSILFADPSNRKQRHSVDCSPPSLSPDPKGPVFYFLHCDNCGEKEFVC,not soluble
4,GPGSMEPKSVEEYSQQNYWIGRYEVEEQHDWFLSVRQPTIAALCDELLKVFQQRERLHSADGNVEGDQPALRVLHLGTGNSSLCMDLYEAVRERQLPFALHQVAMDYAPNVIERMQSKYSPDILPNAQWIVGDVRKLEEFREYGPFDAVIEKGTMDAIEADKNRPEMKGDVEAMLHGVDTLLKHAKGYGAFLQVTWVAPHLRLPYTKGDAFAWGDQVRYSLLGESDIYRLFVYTVRE,soluble
5,GPGSMERVRIRYVLTGACPPTYSGRVVHDFVALKQPNGCDTTIEMVKERFRSNWPADVKELAESISESGIRVLKAGRVLNDHDSLMRHLTASERKACLVSGDTKVGDTNDEMQKPSVLMHMVIQGNRAPLENSRKEKHKVSSTPEGGNSNEGHEMKKDSCCCVM,soluble
6,GPGSMEVYRRITERVRGALWAHHGRLMSERQFHRILAFVYNNKYEYQIRFDRMEVVGREWGGRVEVVTTPAGYLKRVRVNPCVEDLTLYQQQQLILSAYASACADGRKLMEQAEMNIYKQFLKDLKPIVMGIRDNPEFYTVPENSIETIGGVLQTGDSNNLCHTHRTIPAAKARQPTDEVRARQEWEQKWINSPRGQSWALTLRGKTYFTLHGPQYRPRGAPGAKKETLPLDIPAPYTAMDEKRLLKKNWMAYLDNKHVAEVMWTRVKIADREKRQRLLQETGRAWHRPINEEAINRW,not soluble
7,GPGSMFLSLANKLVVSRQRGSSCERMAQPKERASISSEELVVWKAAERVRKGASLPLSRVARCIASATKLLKVETKVVERVCGDTIVFGPIRGHAADFANILLTKVLPNRCVRNIVFLGNYIDGAHQSLGVLFLIAALIVCSRFHIVPLIGKHEMMYPILSETFGSLRNEMLLCCTRRRQPLEQYESIMKEFFSVLPIACVVENKFFCVAGGPSSKFRTLKEIELITMTQEASNEFVLNEPMDEDEERIADRSAFVASQGTELAFRYTFNAACNFLSRNKLAMLIVGMEYHMSLPDYDSFARPNHYKESIYFPGYMLGRIHPESQLPAVLSIFSAPSFCGVNRNNACIAEIAGNRLVVQELGVYAKRPLVTPGTQDHAFSWAQPMLERAVVAIARDIIRGVIKEDAATDDDAHRKRLEEVAVSKMRRMCMLLRTHNIPFPDVPKLTFR,not soluble
8,GPGSMGQVGGTATSGRGLTALQVAAALRVTAAARLKQAEAAVSSSQAMHSAHCSIAEQSKAIKPEDCSAVQRLTVPSTDHKGKHVEVRVTEYAPDVFSFLRQLKGVTDPQFADEWSLPENRLKMEMGEGRSQALFLKSKTMLLMCKTISVEEVHALLHVLRAYTLHITAHPSSLLMRFYMLLKVSVRSEEGYILCFNDVFGTASVLHEKWDIKGRVPKNGKHLHYPHLIGSGYEPDPHATKPPPKRHVLANPAIDASQQHPGRESAVVVRGTKDAQGLPTLHDKDLTRLFWVPRTARKRLVEELLRDYDFLKNAGMMDYSLLIGVAYQDDKTRPSDKHCGIESTNVTSSSAVAPASTSAEARPASLAQDSHPSGTRTMLTTVPEFANGVRSFDGQEMYYIGVIDVLTTYTLKKKSANFFKSLLWKQKTLSTIPPDRYAQRIASFTELIFPDVKEEANGG,not soluble
9,GPGSMHASVVLNMCTASQYTRRTLQSLFERREVDLSALVHVLADNAGYLAATQQGCISLMRVFELCDAAQKAELVRELLPKLAALSMDAFANYMVQCAIEHSDRATAAQYVVAHFTGNILQMSCNKHSSNVLEVVLRCCGEVPAVRRLFLDELVFNPAALKEVVGDLYGNFVVQALIGVVTNPMEFKRVEDRLRPALVGCQFAAKIEGKIKAKRPVPPHAGGAVHHHSYPQSRQQRPLSVPCTMPDHVGPCAPSVRATIALPQAPVMSLGEARVPTQGYCHRPYDCNPLCCAPLAAEQQQPQNVVQAPSGHVYPVDHFQFPILKERTAARAAGAVPVTDGEDSGPVYGPSPAARRHLQQQQQQAFRPPFNIMC,not soluble
10,GPGSMIGLYRVVQFVHLTFFSTGHDLKRRYSKAGDWAVVTGGTEGIGRAVALDLANRGFNVCVISRTQSKLDEVVAEIEKCGTRGHSIAFDFATAGEAEYKMLFAKLDSLAVGLLVNNVGVNYTYANYFDEADVVDDLRIIKVNCEATTRMTKFFAPRMKARRAGGIVLLGSFSAVTPAPLLATYAGTKAFNVSFGDALFYELKKFGVDVLVVTPNLVVSRMTQGASTRAPKETFLTVGAAAMARQTLNQLGVVNRTAGHRNHIIIEAIARLLPESLRGEKMLAMHESIKKRAERKAKQ,not soluble
11,GPGSMLNTFMFPGQGSQAKGMGGALFDRFADLTAQADAVLGYSIRALCVDDPRDELGRTQFTQPALYVVNALTYYAKCEDSGETPDFLAGHSLGEFNALLAAGCFDFETGLKLVARRAELMSQARDGAMAAIVNASREQIERTLDEHGLVDTAIANDNTPSQLVISGPAHEIARAEALFQHDRVRYLRLNTSGAFHSKFMRPAQQAFAAHLQSFRLADPAIPVISNVSARPYENGRVSEGLAQQIASPVRWCESIRYLLALAAERGEAIEFTELGHGDVLTRLVHTIRRQTPAPAAAATSARARPTPPGEPERPAQQTAAAPRASDSASASLGAAERVAAWNRDYPVGTRVRSSLIHDDVLETRTPATVLFGHRAAVYMKGYNGYFDLAEVTPA,soluble
12,GPGSMLPHSQPLVLPMEPSNWAVMPPTGVEMPMEPGTFEDISTAGWIGPRRRSFCGPQTEEEWEDLMIHRSSLRRESGQGTGVGLSGSGCLLGTDDPDRDVLCEYYGDMANRDEKVLSCGLRGQEGRRVLGNKPLRQRPNGPMRERTNYGSLASRRQRVMEEGGVWGDVEVCCVPVEPWHPMDMVCLGEERPEDVCVLRQTDTELYGTGRAFATDGKP,not soluble
13,GPGSMLVDRLQLSCEGTTTAGFTPLLEQFDKGTATQERGAEERAEGNLTPLRVYFRNKRHSLWGHRLWNAAKYMVKRMDSRMIDVRGKTVLELGAGLGVPSLAAFRNGARCVVATDYPDGDLLEILEMNVKANCRADLIDADAAAFLLQEAERLKLAQGYEKSGETVFSEAERQRALSTRCVVEPLLWGKQEHIQKVMSYTGGGGFDIVLLSDILFNHVCNDDLADTIVRVLQRSQHAAAYCVFSHHRAHKQVEDLEFFDKCVARGLRFEQVDEENYPMMFPDDSGPAEIRQPVKTYKIVHYFDDAGMAFQPGNDVFDVVIQGTGMVESIVSAALARSGIRVLHCDGEDDYGGAFKTMTVERMREYITGPLPASLDGAADNRDGRGDHEENHPRCNDGVIAVDRMDELKLHERRSFLLDLLPTHNLSNGETVRQLITSDMARHME,not soluble
14,GPGSMNPLSTRRLGGTVTPGSALSGTCYVSHITRPARTMCWMKLAVFTQFPVVPSLAGTQVQGRQDLLASTAGAGTPEEASLFLQIELFDDECPQLCANFRRLCNGQSSTRQGQVYCFQGLTPSYCGTYFHKIIPSYCVQGGDITMRVKPGGTNSYSSAGRTWLPDEFKKRRHNEIGLVSMANNGPNSNGSQFFITTSAAHERAFNGRHCCIGHVVRGLDAFIALVAPFGNIEGHPSKYAVVVDCGEGEAPTLMSASSSPAAVFQASMAISETGTAGSSPAADSRSVSVEEAPAELDAHYCEQPPQLQLQHRQAADGTGVMAALSPSDAAAAAAPLSISPAQPLKSSLKEKTTAVSEAAKTHAKHVTYQL,not soluble
15,GPGSMPIKAVVTDLDGTLLDPQHCISNYAAEVLKKIKEKGICFIVATGRPYAEVFNRIRHCHLAPDYIITSNGARIHDGAFNVVREHNLRPELVESLARVRTVKDPATGAELPKKFTTNIYRGAEWLTDKSIPEVSKAFHTDFQCTDLRERFYELQASELGDVHEIWFAGDHDELVLLDNALREKYPGDLCCTFSLPHLLDCVPAGVNKGNGVREAAEMLGLALDEVACFGDGMNDESMLQVTSTSFIMANAQQRLKDAVPHAQIIGSNADDGVAKKLEEMFFSA,soluble
16,GPGSMPPKNAVKRNQKSSKQRDNFDEAAIDALIMAIEGKAKKGTTKSQLKQKEDKSLSRANGQSYVLSEQMRNALLAQMQQPTAQEEQYVNVPVPLTGEEKGWQEVAPNRYIRYEQFGGSDAEMNFIVNLFTAELTEPYSSFTYQYFVFGWPDLCITAFGVESETKPDNSVVGEKVGAVVSRVTRKGAGMPLRGYVAMFAVVPKFRGYRLGSRLVSLTVELMRAKGCDEVYLETPTSNVRALGLYLNLGFAKTKYLPRYYLDHSDARASEAVAEGCHPKVCPRDCFHGWCGEGVAGTLRVCLE,soluble
17,GPGSMPSPLVLTRAAPARGLNVKMFDRKVKGLQRSFVSSPACDLHKLCAQQMLDRRTFVKRDTPVVLEVGAHTGWYLRHMIERKEFHGLKQYIQTDISEDRLNRNYEEIKNIIPPEVEFVQICCDEEQPSPFGIPDKSVDMVVSCLSMHWVNDLETSMVNVRKVLKRDGFFLNAMFGGNTLYELRGCFSMAQTETLGGVSPHVSPMIDGAGLSTLVLQAGFNIPTIDLDRHLLLYETPFHLMEHLAVMGESACHYMRQPMKRDVLLCACAIYDTMYKQNGLFPATFEVFHTIAWSPSPTQAKPLARGSGQIPLSSWNSKSRKQLQSVLDEYALNPNDEVLQNKAEDIFKKLREESAELMAKKGLDSRGFERDRDEEARRLDEKPVPPFQ,not soluble
18,GPGSMQQSLIPGHNNNRHLTVEEIENNIGGLAITDNKLQELFDSLDVERTGYLPIGEVKKFYKGLEHYGLEPTDAEIESEMKKFAKSDENFMSYDEFCCLMLSFAQR,not soluble
19,GPGSMQRSTRIVMAPFKSVLRRHKHHPEGLPLYNDMSKQWLCREGERWWLLDARGEQLPRVAAVAAQYITGQHRPDFTPGMITGDHVVIVNIKDVVMVGDQWIRVPITWQTAYPGGKYRIRLTDMYERDPCMLMWWFLKDEVNRHFVRKLKTRIAPLEKAWLYEDSIHPHADKNPRPLCWTDPEVKGWKYRDPQFIRRWKPNEFMH,not soluble
20,GPGSMRGSDAMATHASRWRPPQNPAAVRKYSNETAAPQPPAKIIMEDHSLAEVFRRSAAFQRILAYVQGCSEAVESTPNHQRLSATVDDCDDTVRYLVTDYLPRLHDIVTAIPLEDMAQQRFGNRAKRVFHARLEETVVADMEKLVRTFPTSAGRSEEAITDMATEVAAYVMDSFGNATRLDYGSGHELHFFIVIMICLEEHGDGGGSLKDEPAVLVPLEVPPPPPVPPMERAEVRKRRQDYIFYIFHEYMRLVRRLQKRYSLEPAGSHGVWGLDDYHHIPYIFGGAQLINAEVQPVKPAAGQEAMLVLPKHICDRAKVEMLKDSYLYFSMIAWILENKTGPFHEHSNMLYNISGVEHWSKIYSGMVKMFAAEVLAKYNVSQHLLFGRHLPWNTKTM,soluble
21,GPGSMRLALVGKRTHSLRDNGTPRMHAGDVFICISGSGCIGSIMCTYAQAKKASTGIVMIAGGVGDVPPKDSACATTTLLRSRDGLPWHLHGGGALGPVDGQPVRVRLVFAALFGRDALGGDAAGA,soluble
